Target: GluA2 AMPAR (expressed in HEK293T) (UniProt P23819)
Assay: SPR

Sequence of UniProt P23819 (P23819 25-883): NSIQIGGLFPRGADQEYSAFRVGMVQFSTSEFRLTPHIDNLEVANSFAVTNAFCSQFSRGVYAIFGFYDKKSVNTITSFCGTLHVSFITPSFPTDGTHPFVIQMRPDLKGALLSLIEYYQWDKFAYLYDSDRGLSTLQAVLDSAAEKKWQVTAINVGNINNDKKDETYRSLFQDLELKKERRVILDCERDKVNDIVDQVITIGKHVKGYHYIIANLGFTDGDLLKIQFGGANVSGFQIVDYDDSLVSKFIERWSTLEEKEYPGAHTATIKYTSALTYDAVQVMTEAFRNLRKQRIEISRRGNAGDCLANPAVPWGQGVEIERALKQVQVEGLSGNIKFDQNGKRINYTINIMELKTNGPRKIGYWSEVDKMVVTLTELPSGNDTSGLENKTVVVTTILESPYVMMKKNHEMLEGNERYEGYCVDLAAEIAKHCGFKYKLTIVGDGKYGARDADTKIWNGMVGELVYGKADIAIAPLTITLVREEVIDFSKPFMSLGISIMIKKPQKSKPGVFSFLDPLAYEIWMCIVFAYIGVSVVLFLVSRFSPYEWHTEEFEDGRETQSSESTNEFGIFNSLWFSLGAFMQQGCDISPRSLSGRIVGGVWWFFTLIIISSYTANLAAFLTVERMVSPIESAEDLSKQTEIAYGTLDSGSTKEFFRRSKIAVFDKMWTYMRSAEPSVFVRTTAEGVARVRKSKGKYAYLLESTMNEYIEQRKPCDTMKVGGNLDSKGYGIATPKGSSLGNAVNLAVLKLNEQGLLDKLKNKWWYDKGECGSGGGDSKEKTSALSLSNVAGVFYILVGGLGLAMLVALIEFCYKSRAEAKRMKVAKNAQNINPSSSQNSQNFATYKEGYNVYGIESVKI

Noelin1-3 (untagged, expressed in HEK293T) (natural protein)
Kd: 1 nM
koff: 0.002 s⁻¹

Reference: PMC6088136
